Source: patent publication US6586216B2 (Purdue Research Foundation, priority 1997, dated 2003)

Key:
[1] = molecular target: T1, wild type B. subtilis glutamine PRPP amidotransferase (Bacillus subtilis, UniProt P00497); assay: Inhibition of enzyme activity by nucleotides (glutamate formation assay), wild type; type: biochemical; conditions: read-out: Km PRPP; wild type enzyme; data not shown
T1 construct: Enzymes of the B. subtilis class are synthesized with an NH2 terminal propeptide and an Fe—S center; made in house; host or cells: E. coli strain TX158 (purF) with plasmid pGZ1
T1 sequence (P00497 12-476): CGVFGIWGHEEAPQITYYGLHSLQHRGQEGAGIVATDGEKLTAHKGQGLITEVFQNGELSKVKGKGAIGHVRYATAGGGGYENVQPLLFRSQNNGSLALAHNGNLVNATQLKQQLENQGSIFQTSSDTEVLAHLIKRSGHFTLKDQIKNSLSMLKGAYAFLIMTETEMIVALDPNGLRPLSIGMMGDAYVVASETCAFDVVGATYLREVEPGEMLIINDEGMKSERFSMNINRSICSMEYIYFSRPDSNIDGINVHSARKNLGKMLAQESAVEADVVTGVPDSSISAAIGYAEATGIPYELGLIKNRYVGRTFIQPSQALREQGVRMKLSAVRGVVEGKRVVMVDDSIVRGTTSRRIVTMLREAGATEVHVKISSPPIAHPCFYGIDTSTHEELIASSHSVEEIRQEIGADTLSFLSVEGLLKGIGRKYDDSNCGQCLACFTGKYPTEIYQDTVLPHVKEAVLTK
Procedure: Enzyme activity was assayed by measuring the initial rate of formation of the product glutamate. […] Incubation was at 37° C. for 6 min. […] Reactions were quenched in a boiling water bath for 2 min, and glutamate was determined by the glutamate dehydrogenase method.
Inhibition by nucleotides was determined by the standard assay to which varied concentrations of nucleotide were added. Synergistic inhibition was determined by varying the concentration of one nucleotide in the presence of a fixed concentration of a second nucleotide. Relative activity (see FIG. 1) refers to the enzyme activity at a given concentration of the varied nucleotide relative to that in the absence of the varied nucleotide. I0.5 values were calculated from plots of relative activity versus varied nucleotide concentration.

[2] = test system: O=P(O)(O)OC[C@H]1OC(OP(=O)(O)OP(=O)(O)O)[C@H](O)[C@@H]1O; assay: purified protein, by the assay type; conditions: other: S347A enzyme; data not shown; pH 8.0; 37.0 °C
[3] = Specific activity of purified enzyme; type: biochemical, Bacillus subtilis; conditions: typical value
Procedure: For enzyme purification, all buffers were sparged with nitrogen gas prior to use in order to minimize oxidation of the enzyme's Fe-S cluster. All steps were carried out at 4° C. Cells were resuspended in 4 mL/gram of buffer A [50 mM Tris-HCl (pH 8.0), 10 mM MgCl2, 0.1 mM EDTA, 5 mM DTT, and 2 mM AMP] containing 1 mM PMSF, and were disrupted by two passes through a French Press. The cell extract was obtained by centrifugation for 1 h at 27,000 g. Protamine sulfate (5 mg per gram of cells) was added to the extract to precipitate DNA. After centrifugation at 27,000 g for 30 min, the supernatant was applied to a 1.9×20 cm column of DEAE-Sepharose equilibrated with buffer A. The column was washed with 300 mL of buffer A and 300 mL of buffer A plus 0.1 M KCl and eluted with a linear salt gradient of 600 mL from 0.1 to 1.0 M KCl in buffer A. Brown-colored fractions containing the enzyme were precipitated by addition of ammonium sulfate to 40% saturation. After centrifugation, enzyme in the brown pellet was recovered by extraction twice with 30% saturated ammonium sulfate. […]
Enzyme activity was assayed by measuring the initial rate of formation of the product glutamate. […] Reactions were quenched in a boiling water bath for 2 min, and glutamate was determined by the glutamate dehydrogenase method. […]

## O=P(O)(O)OC[C@H]1OC(OP(=O)(O)OP(=O)(O)O)[C@H](O)[C@@H]1O (stereo partly drawn) [PRPP, phosphoribosylpyrophosphate]
[1]
  Km: 75 to 81 µM

## glutamine PRPP amidotransferase S347A mutant enzyme (Bacillus subtilis subsp. subtilis str. 168; S358A)
[2]
  Km: 182 µM

B1: wild type: wild type B. subtilis glutamine PRPP amidotransferase produced from plasmid pGZ1 (protein, UniProt P00497 12-476, looked up)
Amidophosphoribosyltransferase: T1 sequence (P00497 12-476)
[3]
  Enzyme specific activity: 25 nmol/min/mg
